Measured values taken from the supplement of paper PMC7125110.
± gives the standard error. This sample holds only a part of the variants without activity.

B1: glmS ribozyme (parent)
chain: AUAAAAGCGCCAGAACUACAGAAAUGUAGUUGACGAGGAGGAGGUUUAUCGAAUUUUCGGCGGAUGCCUCCAAA

Variants of: B1
Experiment: self-cleavage kobs at 640 uM GlcN6P; higher = faster cleavage; RNA array
Settings: with glucosamine-6-phosphate
In short: (§1)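 On sequenced MiSeq chips, barcoded ribozyme variants were made in situ by E. coli RNA polymerase and followed at 37 °C through a hybridised Cy3 probe. Glucosamine-6-phosphate was flowed in at 40 μM to 10 mM in HEPES/KCl/Mg(OAc)2 buffer. Exponential fits to normalised per-tile medians gave kobs, and weighted Michaelis–Menten fits gave kcat and KM.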

Variant	self-cleavage kobs at 640 uM GlcN6P [s⁻¹]
AUAAAAGCACCAGAACUACAGAAAUGUAGUGGACGAGGAGGAGGUUUAUCGCAUUUUCGGCGGAUGCCUCCAAA [G9A U31G A52C]	< 1e-05
AUAAAAGCGCCAGAACUACAGAAAUGUAGUUGACGAGGAGGUAGUUUAUCAAAUUUUCGGCGGAUGCUUCCAAA [A42U G43A G51A C68U]	< 1e-05
AUAAAAGCGCCAGAACUACAGAAAUGUAGUUGACGAGGUGGACGUUUAUCGAAUUUUCGGCGGAUGCCUGCAAA [A39U G43C C70G]	< 1e-05
AUAAAAGCGCGAGAGCUACAGAAAUGUAGUUGACGAGGAGGAGGUUUAUGGAAUUUUCGGCGGAUUCCUCCAAA [C11G A15G C50G G66U]	0.000661 ± 0.00032
AUAAAAGCGCCAGAACUACAGAAAUGUAGUUGACGAGGAGGAGGUUUAUCAAAUUUUCGGCGUAUGCCUGCAAA [G51A G63U C70G]	7.13e-05 ± 2.7e-05
AUAAAAGCGCCAGAAGUACAGAAAUGUAGUUGACGAGGAGGAGGUUUAUCGAAUUAUCGGCGGAUGCCUCGAAA [C16G U56A C71G]	7.67e-05 ± 1.7e-05
AUAAAAGCGCCAGAACUACAGAAAUGUAGUUGACGAGGAGGAGGUUUCGAGAAUUUUCGGCGGAUGCCUCCAAA [A48C U49G C50A]	< 1e-05
AUAAAAGUGCCAGAACUACAGAAAUGUAGUUGACGAGGUCGAGGUUUAUCGAAUUGGCGGCGGAUGCCUCCAAA [C8U A39U G40C U56G U57G]	< 1e-05
AUAAAAGCGCCAGAACUACAGAAAUGUAGUUGACGAGGAGGAGGUUAAUCGUAUUUUCGGCGGGUGCCUCCAAA [U47A A52U A64G]	7.01e-05 ± 1.7e-05
AUAAAAGCGCGAGAACUACAGAAAUGUAGUUGACGAGGAGGAGGUUUAUCGAAUUUUCGGCGGAUGCCUACAAA [C11G C70A]	3.62e-05 ± 1.5e-05
AUAAAAGCGCCAGAACUACAGAAAUGUAGUUGAAGAGGCGAAGGUUUAUCGAAUUUUCGGCGGAUUCCUCCAAA [C34A A39C G41A G66U]	< 1e-05
AUAAAAGCGCCUGAACUACAGAAAUGUAGUUGACGAGGGGGAGGUUGAUCGAAAUUUCGGCGGAUGCCACCAAA [A12U A39G U47G U54A U69A]	9.73e-05 ± 2e-05
AUAAACGCGCCAGCACUACAGAAAUGUAGUCGACGGGGAGGAGGUUUGUCGAAUUUUCGGCGGAUGCCUCCAAA [A6C A14C U31C A36G A48G]	< 1e-05
AUAAAAGCGCCAGAAUUACAGAAAUGUAGUUGACUAGGAGGAGGUUUAUCGAAUUUUCGGCGGCUGCCUCCAAA [C16U G35U A64C]	< 1e-05
AUAAAAGCGCCUGAACUACAGAAAUGUAGUUGACGAGGAGGAGUCUUAUCGAAUUUUCGGCGGAUGCCUGCAAA [A12U G44U U45C C70G]	< 1e-05
AUAAAAGCGCCAGACCUACAGAAAUGUAGUUGACGAGGAGGAGGUUUAUUAAAUUUUCGGCUGAUGCCCCCAAA [A15C C50U G51A G62U U69C]	3.56e-05 ± 1.7e-05
AUAAAAGCGCCAGCACUACAGAAAUGUAGUUGACGAGGAGGAGGUUCAUCGAAUUUUCGGCGGAUGCCUCCAAA [A14C U47C]	0.000137 ± 2.2e-05
AUAAAAGGGCCAGAACUACAGAAAUGUAGUUGACGAGGAGGAGGUUUAUGGAAUUUUCGGUGGUUGCCUCCAAA [C8G C50G C61U A64U]	0.00078 ± 0.00019
AUAAAAGCGCCAGAGCUACAGAAAUGUAAUUGACGAGGAGGAGGUUUAUCGAAUUUUCGGCGCAUGCCUCCAAA [A15G G29A G63C]	< 1e-05
AUAAAAGCGACAGAACUACAGAAAUGUAGUUGACGAGGAGCAGGUUUAUCGAAUUUUUGGCGGAUGCCUCCAAA [C10A G41C C58U]	< 1e-05
AUAAAAGCGCCAGAACUACAGAAAUGUAGUUGACAAGGAGGAGGUUUAUGGAAUUUUCGGCGGAUGCUUGCAAA [G35A C50G C68U C70G]	0.000738 ± 0.00024
AUAAAAGCGCCAGAACUACAGAAAUGUAGUUGACGAGCAGGAGGUCUAUCGAAUUUUCUGCGGACGACUCCAAA [G38C U46C G59U U65C C67A]	< 1e-05
AUAAAAGCGCCAGAAUUACAUAAAUGUAGUUGACUAGGAGGAGGUUUAUCGAAUUUUCGGCGGAUGCCUACAAA [C16U G21U G35U C70A]	7.72e-05 ± 2.8e-05
AUAAAAGCGCCAGAACUACAGAAAUGUACCUGACGAGGAGGAGGUUUAUCGAAUUUUCGGCGGAUUCCUCCAAA [G29C U30C G66U]	< 1e-05
AUAAAGGCGCCUGAACUACAGAAAUGUAGUUGACGAGGAGGAGGUUUAUCGAAUUAUCGGCGGAUGCCUCUAAA [A6G A12U U56A C71U]	8.01e-05 ± 2.1e-05
AUAAAAUCGCCAGAACUACAGAAAUGUAGUUGACGAGGAGGAGGUUUAUCGAAUUUUCGGCGGUUGCCUCCAAA [G7U A64U]	< 1e-05

Variants of: B1
Experiment: self-cleavage kobs at 2500 uM GlcN6P; higher = faster cleavage; RNA array
Settings: with glucosamine-6-phosphate
In short: as §1

Variant	self-cleavage kobs at 2500 uM GlcN6P [s⁻¹]
AUAAAAGCGCCAGAACUACAGAAAUGUAGUUGACGAGGUGGACGUUUAUCGAAUUUUCGGCGGAUGCCUGCAAA [A39U G43C C70G]	< 1e-05
AUAAAAGCGCCAGAACUACAGAAAUGUAGUUGACGAGGAGGAGGUUAAUCGUAUUUUCGGCGGGUGCCUCCAAA [U47A A52U A64G]	0.000177 ± 5.4e-05
AUAAAAGCGCCAGAACUACAGAAAUGUAGUUGAAGAGGCGAAGGUUUAUCGAAUUUUCGGCGGAUUCCUCCAAA [C34A A39C G41A G66U]	< 1e-05
AUAAAAGCGCCUGAACUACAGAAAUGUAGUUGACGAGGGGGAGGUUGAUCGAAAUUUCGGCGGAUGCCACCAAA [A12U A39G U47G U54A U69A]	8.59e-05 ± 2.7e-05
AUAAAAGCGCCAGAAUUACAGAAAUGUAGUUGACUAGGAGGAGGUUUAUCGAAUUUUCGGCGGCUGCCUCCAAA [C16U G35U A64C]	< 1e-05
AUAAAAGGGCCAGAACUACAGAAAUGUAGUUGACGAGGAGGAGGUUUAUGGAAUUUUCGGUGGUUGCCUCCAAA [C8G C50G C61U A64U]	0.00023 ± 6.3e-05
AUAAAAGCGCCAGAACUACAGAAAUGUAGUUGACAAGGAGGAGGUUUAUGGAAUUUUCGGCGGAUGCUUGCAAA [G35A C50G C68U C70G]	0.000111 ± 4.4e-05
AUAAAAGCGCCAGAACUACAGAAAUGUAGUUGACGAGCAGGAGGUCUAUCGAAUUUUCUGCGGACGACUCCAAA [G38C U46C G59U U65C C67A]	< 1e-05
AUAAAGGCGCCUGAACUACAGAAAUGUAGUUGACGAGGAGGAGGUUUAUCGAAUUAUCGGCGGAUGCCUCUAAA [A6G A12U U56A C71U]	9.57e-05 ± 2.8e-05

Variants of: B1
Experiment: self-cleavage kobs at 10000 uM GlcN6P; higher = faster cleavage; RNA array
Settings: with glucosamine-6-phosphate
In short: as §1

Variant	self-cleavage kobs at 10000 uM GlcN6P [s⁻¹]
AUAAACGCGCCAGCACUACAGAAAUGUAGUCGACGGGGAGGAGGUUUGUCGAAUUUUCGGCGGAUGCCUCCAAA [A6C A14C U31C A36G A48G]	< 1e-05
AUAAAAGCGCCAGCACUACAGAAAUGUAGUUGACGAGGAGGAGGUUCAUCGAAUUUUCGGCGGAUGCCUCCAAA [A14C U47C]	0.00052 ± 0.00018
AUAAAAUCGCCAGAACUACAGAAAUGUAGUUGACGAGGAGGAGGUUUAUCGAAUUUUCGGCGGUUGCCUCCAAA [G7U A64U]	< 1e-05
